Measurements as given in patent publication US20080280300A1, “Method” (PLASTICELL LIMITED, priority 2005, published 2008).

B1: M-CSF: murine macrophage colony stimulating factor (R&D Systems), haematopoietic growth factor (protein, UniProt P07141 33-552, looked up)
Macrophage colony-stimulating …: KEVSEHCSHMIGNGHLKVLQQLIDSQMETSCQIAFEFVDQEQLDDPVCYLKKAFFLVQDIIDETMRFKDNTPNANATERLQELSNNLNSCFTKDYEEQNKACVRTFHETPLQLLEKIKNFFNETKNLLEKDWNIFTKNCNNSFAKCSSRDVVTKPDCNCLYPKATPSSDPASASPHQPPAPSMAPLAGLAWDDSQRTEGSSLLPSELPLRIEDPGSAKQRPPRSTCQTLESTEQPNHGDRLTEDSQPHPSAGGPVPGVEDILESSLGTNWVLEEASGEASEGFLTQEAKFSPSTPVGGSIQAETDRPRALSASPFPKSTEDQKPVDITDRPLTEVNPMRPIGQTQNNTPEKTDGTSTLREDHQEPGSPHIATPNPQRVSNSATPVAQLLLPKSHSWGIVLPLGELEGKRSTRDRRSPAELEGGSASEGAARPVARFNSIPLTDTGHVEQHEGSSDPQIPESVFHLLVPGIILVLLTVGGLLFYKWKWRSHRDPQTLDSSVGRPEDSSLTQDEDRQVELPV
B2: TPO: murine thrombopoietin (R&D Systems), haematopoietic growth factor (protein, UniProt P40226 22-356, looked up)
Thrombopoietin: SPVAPACDPRLLNKLLRDSHLLHSRLSQCPDVDPLSIPVLLPAVDFSLGEWKTQTEQSKAQDILGAVSLLLEGVMAARGQLEPSCLSSLLGQLSGQVRLLLGALQGLLGTQLPLQGRTTAHKDPNALFLSLQQLLRGKVRFLLLVEGPTLCVRRTLPTTAVPSSTSQLLTLNKFPNRTSGLLETNFSVTARTAGPGLLSRLQGFRVKITPGQLNQTSRSPVQISGYLNRTHGPVNGTHGLFAGTSLQTLEASDISPGAFNKGSLAFNLQGGLPPSPSLAPDGHTPFPPSPALPTTHGSPPQLHPLFPDPSTTMPNSTAPHPVTMYPHPRNLSQET
B3: IL-5: mouse interleukin 5 (R&D Systems), haematopoietic growth factor (protein, UniProt P04401 21-133, looked up)
Interleukin-5: MEIPMSTVVKETLTQLSAHRALLTSNETMRLPVPTHKNHQLCIGEIFQGLDILKNQTVRGGTVEMLFQNLSLIKKYIDRQKEKCGEERRRTRQFLDYLQEFLGVMSTEWAMEG

Tested on: myeloid progenitors derived from mouse embryonic stem cells (D3 ES cells) on microcarriers
Assay: mESC-based cell assay for regenerative drugs: conversion of myeloid progenitors to macrophage (DQ-ovalbumin)
Details: 48 h, triplicate, basal level 1%
Protocol: A screen was performed to identify regenerative drugs capable of stimulating the myeloid lineages of the haematopoietic system. The screen was performed by using a series of culture steps to differentiate mouse embryonic stem cells (mESC) seeded on microcarriers into progenitors of the myeloid lineages, and subsequently subjecting these to culture conditions in the presence or absence of the lineage specific haematopoietic growth factors TPO, M-CSF and IL-5, or the control compound Vitamin C which is reported to affect cell survival but is not a haematopoietic growth factor. After 48 hours the effect on myeloid cell differentiation was assessed using the appearance of macrophages as a surrogate assay. This screen identified TPO and M-CSF as haematopoietic regenerative drugs capable of stimulating the myeloid lineage.
On the day preceding day 1 of the experiment, approximately 1.5×10^4 biotinylated micocarriers equilibrated in medium A (IMDM (Gibco), 15% KOSR, 1% NEAA, 0.5% pen/strep, 0.1 mM β-ME, 1000 U/ml LIF and 1.5×10^−4 M, 1-thioglycerol (MTG; Sigma)) were added to 100 ml of medium A containing approximately 4.5×10^6 ES cells, split into three equal aliquots placed in wells of a 100 mm square petri dish (Bibby Sterilin) and incubated overnight.
In order to prepare myeloid progenitors a two step method was employed. Beads seeded with mESC as described above were incubated in IMDM containing […] retinoic acid for 72 h. The beads were then washed in PBS and transferred to Stemline™ Haematopoietic Expansion Medium (Sigma) containing 40 ng/ml SCF, 2.5 ng TGFβ1, 5 ng/ml BMP2 and 20 ng/ml TPO and incubated for 48 h:
Beads blearing myeloid progenitors prepared as described above were mixed, washed in PBS and transferred to the Test Growth Medium (Stemline™Haematopoietic Expansion Medium (Sigma) supplemented with 30 ng/ml IL-3 and 20 ng/ml IL-6). Equal aliquots of approximately 100 beads were dispensed into the wells of a 48 well plate and incubated in the presence or absence of 50 μg/ml Vitamin C, 10 ng/ml IL-5, 20 ng/ml TPO and 20 ng/ml M-CSF. The screen was carried out in triplicate in wells of separate plates placed in the same incubator.
After 48 h, 1 mg of the macrophage assay reagent DQ-ovalbumin (Molecular Probes) was made up in 0.4 ml PBS and added to each well at a dilution of 1:100. Following incubation for at least 4 h, the medium was aspirated and replaced with PBS. The samples were examined on a Nikon TE2000-S inverted epifluorescent microscope using a-FITC filter set to quantitate microcarriers bearing large, round cells internally labelled with green fluorescence.
The results of the screen are reported as the average number (per cent) of microcarriers that were decorated with macrophage. […]

[1] = 20 ng/ml TPO or M-CSF in Test Growth Medium (IL-3, IL-6)

Molecule | average conversion to macrophage (average number (per cent) of microcarriers decorated with macrophage) [1] [%] | further results
O=C1O[C@H]([C@@H](O)CO)C(O)=C1O [Vitamin C, Ascorbic acid, reference compound] | – | average conversion to macrophage (average number (per cent) of microcarriers decorated with macrophage) (50 μg/ml Vitamin C in Test Growth Medium (IL-3, IL-6)): 0%
B1 | 6 | –
B2 | 6 | –
B3 | – | average conversion to macrophage (average number (per cent) of microcarriers decorated with macrophage) (10 ng/ml IL-5 in Test Growth Medium (IL-3, IL-6)): 0%
